{"source": "patent US20090252724A1", "about": "(Hoffmann-La Roche, published 2009)", "binders": {"B1": {"name": "ANTIBODY A COMPOSITION (mixture of mono- and double-glycosylated ANTIBODY A) (antibody, human IgG1, kappa, V domains shown)", "VH": "QVELVESGGGLVQPGGSLRLSCAASGFTFSSYAMSWVRQAPGKGLEWVSAINASGTRTYYADSVKGRFTISRDNSKNTLYLQMNSLRAEDTAVYYCARGKGNTHKPYGYVRYFDVWGQGTLVTVSS", "VL": "DIVLTQSPATLSLSPGERATLSCRASQSVSSSYLAWYQQKPGQAPRLLIYGASSRATGVPARFSGSGSGTDFTLTISSLEPEDFATYYCLQIYNMPITFGQGTKVEIKR", "modifications": "N-linked glycan at Asn52 (VH CDR2) on one or on both heavy chains (mixture of the two isoforms); N-linked glycan at Asn306 (Fc)", "notes": "also called Mixture of mono- and double-glycosylated ANTIBODY A isoforms (1:1)"}, "B2": {"name": "non-glycosylated ANTIBODY A (antibody, human IgG1, kappa, V domains shown)", "VH": "B1 VH", "VL": "B1 VL", "modifications": "Asn52 not glycosylated; N-linked glycan at Asn306 (Fc)", "notes": "Human IgG1 kappa, made in CHO cells; no glycan in the variable region; also called non-glycosylated ANTIBODY A isoform; non-glycosylated isoform"}, "B3": {"name": "double-glycosylated ANTIBODY A (antibody, human IgG1, kappa, V domains shown)", "VH": "B1 VH", "VL": "B1 VL", "modifications": "N-linked glycan at Asn52 (VH CDR2) on both heavy chains; N-linked glycan at Asn306 (Fc)", "notes": "Human IgG1 kappa, made in CHO cells, separated by cation exchange chromatography; also called double-glycosylated ANTIBODY A isoform; double-glycosylated isoform"}}, "key": {"Aβ1-40 fibers [1]": {"molecular_target": "T1, Aβ1-40 fibers (human)", "T1 construct": "Synthetic peptide aggregated to fibers in vitro (200 µg/ml, 10 mM Na-acetate pH 4.0, 3 days, 37 °C) and coupled to a CM5 chip; also called Aβ1-40 fibrils; fibrillar Aβ40", "assay": "SPR (Biacore), Aβ1-40 fibers on CM5, Scatchard; high affinity (bivalent) KD; extrapolated equilibrium responses; stdev 0.10", "procedure": "(§1) Binding of ANTIBODY A to fibrillar Aβ was measured online by surface plasmon resonance (SPR), and the affinities of the molecular interactions were determined as follows: Biacore2000 and Biacore3000 instruments were used for these measurements. Aβ1-40 and Aβ1-42 fibers were generated in vitro by incubation of synthetic peptides at a concentration of 200 μg/ml in 10 mM Na-acetate buffer (pH 4.0) for three days at 37° C. Electron microscopic analysis confirmed a fibrillar structure for both peptides, Aβ1-40 showing predominantly shorter (<1 micron) and Aβ1-42 predominantly longer (>1 micron) fibers. […]\n(§2) This coupling procedure included an activation step, during which the carboxylic acid groups on the surface were transferred into chemically reactive succinimide ester groups by contacting the surface with an aqueous mixture of N-hydroxysuccinimide and 1-ethyl-1-(3-[…])-carbodiimide hydrochloride, and an immobilization step, during which the activated surface was contacted with the fibres dissolved in 10 mM acetate buffer (pH 4.5) at 200-350 resonance units (1 resonance unit (RU) corresponds approximately to a surface loading of 1 picogram/mm²). […] Typical time dependent response curves (=sensograms) monitored during the association phase (during contact with buffer) and the dissociation phase (subsequent contact with buffer) are shown in FIG. 7. […]"}, "Aβ1-40 fibers [2]": {"molecular_target": "T1, Aβ1-40 fibers", "assay": "SPR (Biacore), Aβ1-40 fibers on CM5, Scatchard; low affinity (monovalent) KD; extrapolated equilibrium responses; stdev 8.40", "procedure": "as §1, §2"}, "Aβ1-40 fibers [3]": {"molecular_target": "T1, Aβ1-40 fibers", "assay": "SPR (Biacore), Aβ1-40 fibers on CM5, Scatchard; low affinity (monovalent) KD; experimental equilibrium responses", "procedure": "(§3) Binding of ANTIBODY A to fibrillar Aβ was measured online by surface plasmon resonance (SPR), and the affinities of the molecular interactions were determined as follows: Biacore2000 and Biacore3000 instruments were used for these measurements. Aβ1-40 and Aβ1-42 fibers were generated in vitro by incubation of synthetic peptides at a concentration of 200 μg/ml in 10 mM Na-acetate buffer (pH 4.0) for three days at 37° C. Electron microscopic analysis confirmed a fibrillar structure for both peptides, Aβ1-40 showing predominantly shorter (<1 micron) and Aβ1-42 predominantly longer (>1 micron) fibers. These fibers were assumed to represent aggregated Aβ peptides in human AD brain more closely than ill-defined mixtures of amorphous aggregates and unstructured precipitates. The fibers were diluted 1:10 and directly coupled to a CM5 as described in the Instruction Manual of the manufacturer (BIAapplication Handbook, version AB, Biacore AB, Uppsala, 1998).\n(§4) This coupling procedure included an activation step, during which the carboxylic acid groups on the surface were transferred into chemically reactive succinimide ester groups by contacting the surface with an aqueous mixture of N-hydroxysuccinimide and 1-ethyl-1-(3-[…])-carbodiimide hydrochloride, and an immobilization step, during which the activated surface was contacted with the fibres dissolved in 10 mM acetate buffer (pH 4.5) at 200-350 resonance units (1 resonance unit (RU) corresponds approximately to a surface loading of 1 picogram/mm²). The fiber loaded surface was then contacted with the antibody solutions in the concentration range 200 nM≧C≧0.15 nM. Typical time dependent response curves (=sensograms) monitored during the association phase (during contact with buffer) and the dissociation phase (subsequent contact with buffer) are shown in FIG. 7.\n(§5) Briefly, KD values were calculated by Scatchard type analysis using concentration dependent equilibrium binding responses. These equilibrium binding constants could be obtained in two ways."}, "Aβ1-40 fibers [4]": {"molecular_target": "T1, Aβ1-40 fibers", "assay": "SPR (Biacore), Aβ1-40 fibers on CM5, Scatchard; high affinity (bivalent) KD; experimental equilibrium responses", "procedure": "as §3, §4, §5"}, "Aβ1-40 fibers [5]": {"molecular_target": "T1, Aβ1-40 fibers", "assay": "SPR (Biacore), Aβ1-40 fibers on CM5, Scatchard; high affinity (bivalent) KD; extrapolated equilibrium responses; stdev 0.03", "procedure": "as §1, §2"}, "Aβ1-40 fibers [6]": {"molecular_target": "T1, Aβ1-40 fibers", "assay": "SPR (Biacore), Aβ1-40 fibers on CM5, Scatchard; low affinity (monovalent) KD; extrapolated equilibrium responses; stdev 0.15", "procedure": "as §1, §2"}, "Aβ1-40 fibers [7]": {"molecular_target": "T1, Aβ1-40 fibers", "assay": "SPR (Biacore), Aβ1-40 fibers on CM5, Scatchard; low affinity (monovalent) KD; extrapolated equilibrium responses; stdev 22.33", "procedure": "as §1, §2"}, "Aβ1-40 fibers [8]": {"molecular_target": "T1, Aβ1-40 fibers", "assay": "SPR (Biacore), Aβ1-40 fibers on CM5, Scatchard; high affinity (bivalent) KD; extrapolated equilibrium responses; stdev 0.02", "procedure": "as §1, §2"}}}
{"binder": "B1", "values": [{"measurement": "Kd", "setting": "Aβ1-40 fibers [1]", "result": 0.49, "unit": "nM"}, {"measurement": "Kd", "setting": "Aβ1-40 fibers [2]", "result": 27.2, "unit": "nM"}, {"measurement": "Kd", "setting": "Aβ1-40 fibers [3]", "result": 21, "unit": "nM"}, {"measurement": "Kd", "setting": "Aβ1-40 fibers [4]", "result": 0.41, "unit": "nM"}]}
{"binder": "B2", "values": [{"measurement": "Kd", "setting": "Aβ1-40 fibers [5]", "result": 0.19, "unit": "nM"}, {"measurement": "Kd", "setting": "Aβ1-40 fibers [6]", "result": 1.99, "unit": "nM"}, {"measurement": "Kd", "setting": "Aβ1-40 fibers [3]", "result": 2.82, "unit": "nM"}, {"measurement": "Kd", "setting": "Aβ1-40 fibers [4]", "result": 0.42, "unit": "nM"}]}
{"binder": "B3", "values": [{"measurement": "Kd", "setting": "Aβ1-40 fibers [3]", "result": 29, "unit": "nM"}, {"measurement": "Kd", "setting": "Aβ1-40 fibers [4]", "result": 1.54, "unit": "nM"}, {"measurement": "Kd", "setting": "Aβ1-40 fibers [7]", "result": 18.5, "unit": "nM"}, {"measurement": "Kd", "setting": "Aβ1-40 fibers [8]", "result": 1.43, "unit": "nM"}]}
